The values below come from patent US20120121587A1 (Chugai, published 2012).

First the molecules themselves.
B1: H26/L13 (antibody, human IgG1, kappa)
heavy: not shown
light: DVVMTQSPLSLPVTLGQPASISCQSSQNIVHTNGNTYLEWYQQKPGQAPELLIYKVSNRFSGVPDRFSGSGSGTDFTLKISRVEAEDVGVYYCFQGSHIPFTFGQGTKVEIERTVAAPSVFIFPPSDEQLKSGTASVVCLLNNFYPREAKVQWKVDNALQSGNSQESVTEQDSKDSTYSLSSTLTLSKADYEKHKVYACEVTHQGLSSPVTKSFNRGEC
B2: H31/L10 (antibody, human IgG1, kappa)
heavy: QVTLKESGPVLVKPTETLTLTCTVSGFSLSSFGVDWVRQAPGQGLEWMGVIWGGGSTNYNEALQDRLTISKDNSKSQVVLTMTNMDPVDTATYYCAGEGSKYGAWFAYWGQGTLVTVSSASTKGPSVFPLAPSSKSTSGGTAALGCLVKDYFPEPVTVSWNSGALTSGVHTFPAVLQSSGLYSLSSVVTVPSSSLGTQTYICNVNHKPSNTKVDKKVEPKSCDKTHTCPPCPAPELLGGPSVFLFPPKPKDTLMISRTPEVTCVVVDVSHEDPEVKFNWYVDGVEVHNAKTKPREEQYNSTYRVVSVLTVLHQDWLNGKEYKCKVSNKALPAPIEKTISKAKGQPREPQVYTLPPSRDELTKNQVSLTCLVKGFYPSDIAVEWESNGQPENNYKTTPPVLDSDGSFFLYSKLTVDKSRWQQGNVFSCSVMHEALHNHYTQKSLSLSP
light: DVVMTQSPLSLPVTLGQPASISCRSSQNIVHTNGNTYLEWYQQKPGKAPELLIYKVSNRFSGVPDRFSGSGSGTDFTLKISRVEAEDVGVYYCFQGSHIPFTFGQGTKVEIERTVAAPSVFIFPPSDEQLKSGTASVVCLLNNFYPREAKVQWKVDNALQSGNSQESVTEQDSKDSTYSLSSTLTLSKADYEKHKVYACEVTHQGLSSPVTKSFNRGEC
B3: H28/L0 (antibody, human IgG1, kappa, V domains shown)
VH: QVTLKESGPVLVKPTETLTLTCTVSGFSLSSFGVDWVRQAPGKGLEWMGVIWGGGSTNYNEELQDRLTISKDNSKSQVVLTMTNMDPVDTATYYCAGEGSKYGAWFAYWGQGTLVTVSS
VL: DVVMTQSPLSLPVTLGQPASISCRSSQNIVHTNGNTYLEWYQQKPGKAPELLIYKVSNRFSGVPDRFSGSGSGTDFTLKISRVEAEDVGVYYCFQGSHIPFTFGQGTKLEIKR
B4: H33/L13 (antibody, human IgG1, kappa, V domains shown)
VH: QVTLKESGPVLVKPTETLTLTCTVSGFSLSSFGVDWVRQAPGQGLEWMGVIWGGGSTNYNEALQDRLTISKDNSKSQVVLTMTNMDPVDTATYYCAGEGSKYGAWFAYWGEGTLVTVSS
VL: DVVMTQSPLSLPVTLGQPASISCQSSQNIVHTNGNTYLEWYQQKPGQAPELLIYKVSNRFSGVPDRFSGSGSGTDFTLKISRVEAEDVGVYYCFQGSHIPFTFGQGTKVEIER
B5: H34/L0 (antibody, human IgG1, kappa, V domains shown)
VH: QVTLKESGPVLVKPTETLTLTCTVSGFSLSKFGVDWVRQAPGKGLEWMGVIWGGGSTNYNSALKSRLTISKDNSKSQVVLTMTNMDPVDTATYYCAGEGSKYGAWFAYWGQGTLVTVSS
VL: DVVMTQSPLSLPVTLGQPASISCRSSQNIVHTNGNTYLEWYQQKPGKAPELLIYKVSNRFSGVPDRFSGSGSGTDFTLKISRVEAEDVGVYYCFQGSHIPFTFGQGTKLEIKR
B6: H30/L0 (antibody, human IgG1, kappa)
heavy: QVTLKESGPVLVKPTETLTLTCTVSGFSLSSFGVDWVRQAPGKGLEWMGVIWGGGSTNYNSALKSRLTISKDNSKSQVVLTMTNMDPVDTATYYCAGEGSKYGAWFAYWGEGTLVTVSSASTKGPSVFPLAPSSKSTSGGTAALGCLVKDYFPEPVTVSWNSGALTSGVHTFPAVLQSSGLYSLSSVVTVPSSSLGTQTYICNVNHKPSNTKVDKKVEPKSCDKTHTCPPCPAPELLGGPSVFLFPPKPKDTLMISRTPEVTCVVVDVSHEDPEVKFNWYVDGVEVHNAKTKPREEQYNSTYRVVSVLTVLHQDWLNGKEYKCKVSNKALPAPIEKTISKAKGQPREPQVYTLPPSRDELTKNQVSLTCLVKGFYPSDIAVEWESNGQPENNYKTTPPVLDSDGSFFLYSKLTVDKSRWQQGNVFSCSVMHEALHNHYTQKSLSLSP
light: DVVMTQSPLSLPVTLGQPASISCRSSQNIVHTNGNTYLEWYQQKPGKAPELLIYKVSNRFSGVPDRFSGSGSGTDFTLKISRVEAEDVGVYYCFQGSHIPFTFGQGTKLEIKRTVAAPSVFIFPPSDEQLKSGTASVVCLLNNFYPREAKVQWKVDNALQSGNSQESVTEQDSKDSTYSLSSTLTLSKADYEKHKVYACEVTHQGLSSPVTKSFNRGEC
B7: H33/L11 (antibody, human IgG1, kappa)
heavy: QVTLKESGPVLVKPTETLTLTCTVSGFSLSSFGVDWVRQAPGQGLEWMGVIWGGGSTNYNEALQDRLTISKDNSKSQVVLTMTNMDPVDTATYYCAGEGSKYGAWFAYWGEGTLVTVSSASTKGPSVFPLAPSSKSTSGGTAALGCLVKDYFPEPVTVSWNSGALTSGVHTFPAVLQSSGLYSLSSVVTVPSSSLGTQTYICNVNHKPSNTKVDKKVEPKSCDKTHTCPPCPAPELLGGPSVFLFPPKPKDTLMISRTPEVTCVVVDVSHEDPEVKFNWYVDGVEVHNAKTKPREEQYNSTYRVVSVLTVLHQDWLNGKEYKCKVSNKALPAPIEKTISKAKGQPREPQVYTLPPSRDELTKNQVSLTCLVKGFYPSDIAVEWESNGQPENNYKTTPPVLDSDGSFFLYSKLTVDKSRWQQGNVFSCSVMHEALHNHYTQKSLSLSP
light: DVVMTQSPLSLPVTLGQPASISCQSSQNIVHTNGNTYLEWYQQKPGKAPELLIYKVSNRFSGVPDRFSGSGSGTDFTLKISRVEAEDVGVYYCFQGSHIPFTFGQGTKVEIERTVAAPSVFIFPPSDEQLKSGTASVVCLLNNFYPREAKVQWKVDNALQSGNSQESVTEQDSKDSTYSLSSTLTLSKADYEKHKVYACEVTHQGLSSPVTKSFNRGEC
B8: H31/L12 (antibody, human IgG1, kappa)
heavy: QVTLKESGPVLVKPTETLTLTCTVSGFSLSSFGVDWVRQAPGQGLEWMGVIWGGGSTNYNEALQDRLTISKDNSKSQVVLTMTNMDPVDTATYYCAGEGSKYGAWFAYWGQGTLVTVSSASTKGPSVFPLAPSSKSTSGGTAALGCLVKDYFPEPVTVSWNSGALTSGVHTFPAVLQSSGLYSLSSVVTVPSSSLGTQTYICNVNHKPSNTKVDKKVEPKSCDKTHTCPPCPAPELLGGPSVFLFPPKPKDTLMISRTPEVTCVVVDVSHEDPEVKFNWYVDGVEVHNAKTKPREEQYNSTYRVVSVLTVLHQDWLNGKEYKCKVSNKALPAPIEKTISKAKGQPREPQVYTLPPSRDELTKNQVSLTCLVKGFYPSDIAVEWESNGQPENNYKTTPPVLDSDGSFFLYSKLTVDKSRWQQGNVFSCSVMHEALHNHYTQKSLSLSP
light: DVVMTQSPLSLPVTLGQPASISCQSSQNIVHTNGNTYLEWYQQKPGEAPELLIYKVSNRFSGVPDRFSGSGSGTDFTLKISRVEAEDVGVYYCFQGSHIPFTFGQGTKVEIERTVAAPSVFIFPPSDEQLKSGTASVVCLLNNFYPREAKVQWKVDNALQSGNSQESVTEQDSKDSTYSLSSTLTLSKADYEKHKVYACEVTHQGLSSPVTKSFNRGEC
B9: H32/L0 (antibody, human IgG1, kappa)
heavy: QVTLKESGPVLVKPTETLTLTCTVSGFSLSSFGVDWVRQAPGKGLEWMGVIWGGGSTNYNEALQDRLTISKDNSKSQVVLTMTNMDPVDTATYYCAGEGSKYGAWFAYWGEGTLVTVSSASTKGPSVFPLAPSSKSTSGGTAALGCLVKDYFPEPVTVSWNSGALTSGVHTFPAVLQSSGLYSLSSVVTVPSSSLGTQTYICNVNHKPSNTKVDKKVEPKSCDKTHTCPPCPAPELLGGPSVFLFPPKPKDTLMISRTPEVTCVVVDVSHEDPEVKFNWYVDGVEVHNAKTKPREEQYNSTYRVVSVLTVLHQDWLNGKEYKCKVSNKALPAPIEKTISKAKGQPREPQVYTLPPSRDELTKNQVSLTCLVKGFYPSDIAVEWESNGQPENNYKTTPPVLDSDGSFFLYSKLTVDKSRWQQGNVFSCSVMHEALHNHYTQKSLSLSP
light: DVVMTQSPLSLPVTLGQPASISCRSSQNIVHTNGNTYLEWYQQKPGKAPELLIYKVSNRFSGVPDRFSGSGSGTDFTLKISRVEAEDVGVYYCFQGSHIPFTFGQGTKLEIKRTVAAPSVFIFPPSDEQLKSGTASVVCLLNNFYPREAKVQWKVDNALQSGNSQESVTEQDSKDSTYSLSSTLTLSKADYEKHKVYACEVTHQGLSSPVTKSFNRGEC
B10: H33/L12 (antibody, human IgG1, kappa)
heavy: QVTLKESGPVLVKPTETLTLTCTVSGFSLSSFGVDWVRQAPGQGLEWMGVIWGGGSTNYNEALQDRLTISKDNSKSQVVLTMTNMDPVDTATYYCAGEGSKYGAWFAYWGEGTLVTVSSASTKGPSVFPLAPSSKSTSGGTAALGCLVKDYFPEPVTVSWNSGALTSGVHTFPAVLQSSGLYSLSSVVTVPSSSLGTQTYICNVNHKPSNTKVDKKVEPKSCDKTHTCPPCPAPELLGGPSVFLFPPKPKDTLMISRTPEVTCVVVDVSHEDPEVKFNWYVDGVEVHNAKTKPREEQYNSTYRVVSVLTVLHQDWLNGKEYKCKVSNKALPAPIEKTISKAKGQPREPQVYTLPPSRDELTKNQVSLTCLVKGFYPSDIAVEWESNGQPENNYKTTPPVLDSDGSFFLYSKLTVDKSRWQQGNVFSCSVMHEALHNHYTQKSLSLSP
light: DVVMTQSPLSLPVTLGQPASISCQSSQNIVHTNGNTYLEWYQQKPGEAPELLIYKVSNRFSGVPDRFSGSGSGTDFTLKISRVEAEDVGVYYCFQGSHIPFTFGQGTKVEIERTVAAPSVFIFPPSDEQLKSGTASVVCLLNNFYPREAKVQWKVDNALQSGNSQESVTEQDSKDSTYSLSSTLTLSKADYEKHKVYACEVTHQGLSSPVTKSFNRGEC
B11: H32/L13 (antibody, human IgG1, kappa)
heavy: not shown
light: DVVMTQSPLSLPVTLGQPASISCQSSQNIVHTNGNTYLEWYQQKPGQAPELLIYKVSNRFSGVPDRFSGSGSGTDFTLKISRVEAEDVGVYYCFQGSHIPFTFGQGTKVEIERTVAAPSVFIFPPSDEQLKSGTASVVCLLNNFYPREAKVQWKVDNALQSGNSQESVTEQDSKDSTYSLSSTLTLSKADYEKHKVYACEVTHQGLSSPVTKSFNRGEC
B12: H27/L0 (antibody, human IgG1, kappa, V domains shown)
VH: QVTLKESGPVLVKPTETLTLTCTVSGFSLSSFGVDWVRQAPGKGLEWMGVIWGGGSTNYNSELQDRLTISKDNSKSQVVLTMTNMDPVDTATYYCAGEGSKYGAWFAYWGQGTLVTVSS
VL: DVVMTQSPLSLPVTLGQPASISCRSSQNIVHTNGNTYLEWYQQKPGKAPELLIYKVSNRFSGVPDRFSGSGSGTDFTLKISRVEAEDVGVYYCFQGSHIPFTFGQGTKLEIKR
B13: H32/L12 (antibody, human IgG1, kappa)
heavy: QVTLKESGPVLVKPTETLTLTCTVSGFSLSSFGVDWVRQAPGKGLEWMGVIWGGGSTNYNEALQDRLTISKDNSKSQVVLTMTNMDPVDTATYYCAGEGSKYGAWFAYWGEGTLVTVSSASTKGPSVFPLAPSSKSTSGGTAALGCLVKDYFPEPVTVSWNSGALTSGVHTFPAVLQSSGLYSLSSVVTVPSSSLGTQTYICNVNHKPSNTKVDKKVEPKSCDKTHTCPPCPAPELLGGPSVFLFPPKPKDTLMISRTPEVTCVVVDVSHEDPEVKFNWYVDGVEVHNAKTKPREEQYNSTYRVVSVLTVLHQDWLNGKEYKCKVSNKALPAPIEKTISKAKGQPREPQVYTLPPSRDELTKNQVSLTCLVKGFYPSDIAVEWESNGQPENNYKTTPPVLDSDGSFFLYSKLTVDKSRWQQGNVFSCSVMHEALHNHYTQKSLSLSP
light: DVVMTQSPLSLPVTLGQPASISCQSSQNIVHTNGNTYLEWYQQKPGEAPELLIYKVSNRFSGVPDRFSGSGSGTDFTLKISRVEAEDVGVYYCFQGSHIPFTFGQGTKVEIERTVAAPSVFIFPPSDEQLKSGTASVVCLLNNFYPREAKVQWKVDNALQSGNSQESVTEQDSKDSTYSLSSTLTLSKADYEKHKVYACEVTHQGLSSPVTKSFNRGEC
B14: H31/L0 (antibody, human IgG1, kappa)
heavy: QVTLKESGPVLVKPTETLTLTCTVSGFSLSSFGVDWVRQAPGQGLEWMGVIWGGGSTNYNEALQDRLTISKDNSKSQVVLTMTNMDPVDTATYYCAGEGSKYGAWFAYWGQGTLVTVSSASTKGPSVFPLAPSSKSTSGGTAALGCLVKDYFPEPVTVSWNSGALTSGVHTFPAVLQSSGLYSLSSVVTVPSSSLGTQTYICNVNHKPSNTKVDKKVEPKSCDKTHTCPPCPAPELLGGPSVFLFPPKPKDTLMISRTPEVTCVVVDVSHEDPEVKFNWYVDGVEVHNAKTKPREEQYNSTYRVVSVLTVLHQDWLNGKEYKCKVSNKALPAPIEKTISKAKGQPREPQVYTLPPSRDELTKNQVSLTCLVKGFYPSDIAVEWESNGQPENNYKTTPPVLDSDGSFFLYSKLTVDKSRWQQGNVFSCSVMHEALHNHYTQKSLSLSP
light: DVVMTQSPLSLPVTLGQPASISCRSSQNIVHTNGNTYLEWYQQKPGKAPELLIYKVSNRFSGVPDRFSGSGSGTDFTLKISRVEAEDVGVYYCFQGSHIPFTFGQGTKLEIKRTVAAPSVFIFPPSDEQLKSGTASVVCLLNNFYPREAKVQWKVDNALQSGNSQESVTEQDSKDSTYSLSSTLTLSKADYEKHKVYACEVTHQGLSSPVTKSFNRGEC
B15: H32/L10 (antibody, human IgG1, kappa)
heavy: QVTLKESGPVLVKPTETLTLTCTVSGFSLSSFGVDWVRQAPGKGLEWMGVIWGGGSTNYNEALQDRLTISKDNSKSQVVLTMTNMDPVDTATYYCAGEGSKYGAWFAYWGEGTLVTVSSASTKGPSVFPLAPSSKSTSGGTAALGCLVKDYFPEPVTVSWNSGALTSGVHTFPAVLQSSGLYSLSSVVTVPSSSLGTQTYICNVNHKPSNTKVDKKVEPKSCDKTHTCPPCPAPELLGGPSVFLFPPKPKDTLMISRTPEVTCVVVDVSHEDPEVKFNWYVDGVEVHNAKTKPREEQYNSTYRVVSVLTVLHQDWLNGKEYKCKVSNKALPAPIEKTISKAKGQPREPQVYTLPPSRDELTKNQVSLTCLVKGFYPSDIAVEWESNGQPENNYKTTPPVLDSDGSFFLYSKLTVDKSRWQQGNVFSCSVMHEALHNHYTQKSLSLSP
light: DVVMTQSPLSLPVTLGQPASISCRSSQNIVHTNGNTYLEWYQQKPGKAPELLIYKVSNRFSGVPDRFSGSGSGTDFTLKISRVEAEDVGVYYCFQGSHIPFTFGQGTKVEIERTVAAPSVFIFPPSDEQLKSGTASVVCLLNNFYPREAKVQWKVDNALQSGNSQESVTEQDSKDSTYSLSSTLTLSKADYEKHKVYACEVTHQGLSSPVTKSFNRGEC
B16: H31/L11 (antibody, human IgG1, kappa)
heavy: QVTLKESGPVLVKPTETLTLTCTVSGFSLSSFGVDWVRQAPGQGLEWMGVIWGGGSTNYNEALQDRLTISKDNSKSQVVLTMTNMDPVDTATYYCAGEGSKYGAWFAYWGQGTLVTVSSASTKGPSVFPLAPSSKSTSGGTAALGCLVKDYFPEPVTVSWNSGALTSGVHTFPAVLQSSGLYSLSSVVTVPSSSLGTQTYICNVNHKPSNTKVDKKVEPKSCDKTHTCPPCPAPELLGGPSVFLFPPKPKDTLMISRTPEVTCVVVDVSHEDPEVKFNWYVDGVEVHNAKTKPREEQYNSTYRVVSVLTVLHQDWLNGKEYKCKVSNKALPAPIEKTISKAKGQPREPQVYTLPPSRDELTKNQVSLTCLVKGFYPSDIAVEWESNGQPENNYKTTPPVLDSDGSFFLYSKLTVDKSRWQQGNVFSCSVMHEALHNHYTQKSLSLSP
light: DVVMTQSPLSLPVTLGQPASISCQSSQNIVHTNGNTYLEWYQQKPGKAPELLIYKVSNRFSGVPDRFSGSGSGTDFTLKISRVEAEDVGVYYCFQGSHIPFTFGQGTKVEIERTVAAPSVFIFPPSDEQLKSGTASVVCLLNNFYPREAKVQWKVDNALQSGNSQESVTEQDSKDSTYSLSSTLTLSKADYEKHKVYACEVTHQGLSSPVTKSFNRGEC
B17: H32/L11 (antibody, human IgG1, kappa)
heavy: not shown
light: DVVMTQSPLSLPVTLGQPASISCQSSQNIVHTNGNTYLEWYQQKPGKAPELLIYKVSNRFSGVPDRFSGSGSGTDFTLKISRVEAEDVGVYYCFQGSHIPFTFGQGTKVEIERTVAAPSVFIFPPSDEQLKSGTASVVCLLNNFYPREAKVQWKVDNALQSGNSQESVTEQDSKDSTYSLSSTLTLSKADYEKHKVYACEVTHQGLSSPVTKSFNRGEC
B18: H33/L0 (antibody, human IgG1, kappa)
heavy: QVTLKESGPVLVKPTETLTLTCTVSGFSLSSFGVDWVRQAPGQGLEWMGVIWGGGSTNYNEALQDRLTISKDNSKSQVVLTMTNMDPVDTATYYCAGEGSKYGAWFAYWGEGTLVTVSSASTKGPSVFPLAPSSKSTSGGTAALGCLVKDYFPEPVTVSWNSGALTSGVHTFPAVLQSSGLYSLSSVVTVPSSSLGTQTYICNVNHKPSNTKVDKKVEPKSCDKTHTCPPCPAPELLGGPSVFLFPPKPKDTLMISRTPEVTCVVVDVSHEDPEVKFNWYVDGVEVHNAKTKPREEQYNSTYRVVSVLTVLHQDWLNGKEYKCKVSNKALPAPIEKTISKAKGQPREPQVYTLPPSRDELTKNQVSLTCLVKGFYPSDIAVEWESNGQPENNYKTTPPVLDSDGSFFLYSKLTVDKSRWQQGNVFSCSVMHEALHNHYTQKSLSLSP
light: DVVMTQSPLSLPVTLGQPASISCRSSQNIVHTNGNTYLEWYQQKPGKAPELLIYKVSNRFSGVPDRFSGSGSGTDFTLKISRVEAEDVGVYYCFQGSHIPFTFGQGTKLEIKRTVAAPSVFIFPPSDEQLKSGTASVVCLLNNFYPREAKVQWKVDNALQSGNSQESVTEQDSKDSTYSLSSTLTLSKADYEKHKVYACEVTHQGLSSPVTKSFNRGEC

The target in this assay is T1, Human recombinant AXL-FND1 (GST-FND1), from pET-41b(+) (human, UniProt P30530 225-331).
T1 construct: Expressed in E. coli, purified on Glutathione Sepharose; analyte in all Biacore measurements; GST put first by the usual layout of pET-41; not shown: GST-tag of vector pET-41b(+) (Novagen)
T1 sequence (looked up): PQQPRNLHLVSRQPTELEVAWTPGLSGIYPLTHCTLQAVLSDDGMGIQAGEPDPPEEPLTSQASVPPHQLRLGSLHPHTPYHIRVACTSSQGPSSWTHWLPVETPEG
Put plainly: SPR (Biacore T100): antibody captured on Protein A, GST-FND1 as analyte. As for the experimental part: Kinetic analyses of antigen-antibody reactions of humanized AXL antibodies were carried out using Biacore T100 (BIACORE). rec-Protein A (Zymed) (hereinafter, Protein A) was immobilized onto a sensor chip, various antibodies were bound to it, then an antigen as the analyte was flushed to measure the antibody-antigen interaction. Human recombinant AXL-FND1 (prepared in 2-2; hereinafter referred to as GST-FND1) prepared at various concentrations was used as the antigen. From the sensorgrams obtained through the measurements, kinetic parameters, namely binding rate constant kₐ (1/Ms) and dissociation rate constant kd (1/s), were calculated, and Kd (M) was calculated based on these values. Biacore T100 Evaluation Software (BIACORE) was used to calculate each of the parameters.
The sensor chips were produced by immobilizing approximately 3000 RU of Protein A onto CM5 (BIACORE) by amine coupling. Using the produced sensor chip, kinetic analyses were carried out on the interaction between the Protein A-bound antibodies and GST-FND1. HBS-EP+ was used as the running buffer, and the flow rate was set to 30 μL/min. Each antibody was prepared at 1 μg/mL using the running buffer, and was subjected to binding with Protein A for two minutes. GST-FND1 as the analyte was prepared at 0.5 and 2.0 μg/mL using HBS-EP+. Measurements were carried out by first binding the various humanized AXL antibodies, chimeric AXL antibodies, or mouse AXL antibodies of interest to Protein A, then applying an analyte solution to them for a two-minute interaction, and then switching to HBS-EP+ (BIACORE) for a two-minute measurement of the dissociation phase. After completion of measurement of the dissociation phase, 30 μL of 10 mM glycine-HCl (pH 2.0) was used for washing to regenerate the sensor chip. Such binding, dissociation, and regeneration were defined as one cycle of analysis. All experiments were performed at 25° C.
Affinity evaluation of each of the variants by Biacore was carried out by the method of Example 2.
As to B1, the equilibrium dissociation constant (Kd) is 2.5 nM.
As for B2, the figure is 3.03 nM; as for B3, 2.94 nM; as for B4, 3.02 nM.
The value for B5 was 5.94 nM.
As to B6, the Kd is 2.7 nM.
The value for B7 was 3.06 nM; that for B8 was 3.14 nM; that for B9 was 2.82 nM.
Turning to B10, the dissociation constant (Kd) came to 3.06 nM.
As to B11, the Kd is 2.74 nM.
On to B12, for which the Kd is 3.03 nM.
As for B13, the figure is 2.64 nM; as for B14, 2.54 nM; as for B15, 2.8 nM.
The value for B16 was 3.05 nM.
Regarding B17, the Kd amounted to 2.74 nM.
As for B18, the figure is 3.04 nM.
